Results on four molecules are retold here after US20230144459A1 (BIOND BIOLOGICS, published 2023).

Assay [1] addresses T1, L145K CD28 stalk region dimeric peptide (human, C-terminal biotin; dimeric).
T1 construct: also called CD28 stalk region peptide with mutation at the cleavage site
T1 peptide: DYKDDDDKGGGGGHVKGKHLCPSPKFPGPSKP
As to the kind of experiment: direct ELISA on biotinylated dimeric peptide on neutravidin plates. For orientation: In an ELISA, binding on a coated surface is turned into a signal by an enzyme label.

The target of assay [2] is T2, c-Myc conjugated and biotinylated human CD28 stalk region dimeric peptide (wild-type) (human, C-terminal biotin; dimer by a disulfide linkage at Cysteine 141 (CD28 numbering)).
T2 construct: N-terminal tag, five glycines, then His134-Pro152 of human CD28; also called substrate peptide; wild-type CD28 stalk region dimeric peptide
T2 peptide: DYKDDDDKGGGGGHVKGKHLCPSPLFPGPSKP
As to the kind of experiment: direct ELISA, wild-type biotinylated dimeric stalk peptide on neutravidin plates.

In assay [3] the target is T3, membranal human CD28 (human, UniProt P10747 19-220).
T3 construct: Full-length human CD28 on stably transfected HEK293 cells, or native CD28 on human CD4 T cells and PBMC in the shedding assays; Homodimer through Cys 141; also called mCD28; membrane CD28
The experiment in a line: flow cytometry on HEK293 cells over expressing human CD28; percent reduction of median CD86-Fc (2 µg/mL) signal; competitor CD86-Fc. (In general: A flow cytometer gives signals particle by particle.)

Assay [4] concerns the target T3, membranal human CD28. As to the kind of experiment: cell-based or functional assay.
The target in assay [5] is T4, BSA conjugated CD28 stalk region dimeric peptide (human, also: dimer, conjugated to BSA via C-terminal Lys).
T4 construct: also called stalk region peptide
T4 peptide: GKHLCPSPLFPGPSKPK
The experiment in a line: ELISA, BSA conjugated dimeric peptide on plate, serial dilution of M9.

Where no end group is shown, it is not given here.

B1: VHH clone 4A1 (VHH)
VHH: QVQLVESGGGLVQAGGSLRLSCAASGSIFSINAMGWYRQAPGKQRERVAAITSGGSTNYADSVKGRFTISRDNAKNTVYLQMNNLEPRDAGVYYCVVDLYGEDYWIWGQGTQVTVSS
notes: VHH with AAA linker and C-terminal His6, made in CHO cells
In the case of B1, the binding result in assay [1] is given as “no binding (tested: 0.2-5 µg/mL)”; in assay [2], “binds”.

B2: VHH clone 2A1 (VHH)
VHH: EVQLVESGGGLVQAGESLRLSCAASGSIASINAMGWYRQAPGSQRELVAAISGGGDTYYADSVKGRFTISRDNAKTTVYLQMNSLRPEDTAVYYCVVDLYGSDYWDWGQGTQVTVSSAAAHHHHHH
notes: VHH with AAA linker and C-terminal His6, made in CHO cells; also called VHH #2A1; 2A1-6H
Regarding B2, the “Blocking CD86 binding (%)” value in assay [3] came out at 8.2%. Also, the “Inhibition (%) of CD28 shedding” value in assay [4] came to 58.9%. Further, the binding result is “no binding (tested: 0.2-5 µg/mL)” in assay [1] and “binds” in assay [2].

B3: VHH clone 4A4 (VHH)
VHH: EVQLVESGGGLVQAGGSLRLSCAASGSLFSINAMAWYRQAPGKQRELVAAITSSGSTNYANSVKGRFTVSRDNAKNTMYLQMNSLKPEDTAVYYCVVDEYGSDYWIWGQGTQVTVSS
notes: as for B1
B3: the binding result in assay [1] is given as “no binding (tested: 0.2-5 µg/mL)”; in assay [2] it was “binds”.

B4: antibody M9 (antibody, V domains shown)
VH: DVKLVESGGGLVKLGGSLKLSCVASGFTFSSYYMSWVRQTPEKRLEWVATISDGGDNTYYAGTVTGRFTISRDFAKNTLYLQMNSLTSEDTAVYYCARIHWPYYFDSWGQGTTLTVSS
VL: QFVLSQSPAILSASPGEMLTMTCRASSSVSYMNWYQQKPGSSPKPWIYATSDLASGVPARFSGSGSGTSYSLTISRVEAEDAATYYCQQWSSHPPTFGGGTKLEIR
notes: Full-size mouse antibody from CD1 mice immunised with the dimeric stalk peptide, detected with anti mouse IgG; also called clone M9; anti-cleavage antibody M9
On to B4, for which the binding result in assay [5] is “binds”.
